Laboratory results taken from patent publication US20110269161.

Columns and labels:
[1] = molecular target: T1, peptide B6 (PKRKVSSAEGPFR), derived from nonhistone chromosomal protein HMG-14 (Ser6)
T1 chain: PKRKVSSAEGPFR

[2] = molecular target: T2, peptide C11 (NKRRGSVPILPFR), derived from erythrocyte membrane protein band 4.2 (Ser247)
T2 chain: NKRRGSVPILPFR

[3] = molecular target: T3, peptide C6 (TKRSGSVYEPPFR), derived from phosphorylase b kinase regulatory subunit beta (Ser26)
T3 chain: TKRSGSVYEPPFR

[4] = molecular target: T4, peptide E11 (RKRLISSVEDPFR), derived from tuberin (Ser1798)
T4 chain: RKRLISSVEDPFR

[5] = molecular target: T5, peptide F6 (RIRTQSFSLQPFR), derived from nitric-oxide synthase, endothelial (Ser1176)
T5 chain: RIRTQSFSLQPFR

[6] = molecular target: T6, peptide G5 (SKRRNSEFEIPFR), derived from tryptophan 5-hydroxylase 1 (Ser58)
T6 chain: SKRRNSEFEIPFR

B1: 90 kDa ribosomal S6 kinases 1 (RSK1, 1-735), purified human active kinase (protein)
chain: MPLAQLKEPWPLMELVPLDPENGQTSGEEAGLQPSKDEGVLKEISITHHVKAGSEKADPSHFELLKVLGQGSFGKVFLVRKVTRPDSGHLYAMKVLKKATLKVRDRVRTKMERDILADVNHPFVVKLHYAFQTEGKLYLILDFLRGGDLFTRLSKEVMFTEEDVKFYLAELALGLDHLHSLGIIYRDLKPENILLDEEGHIKLTDFGLSKEAIDHEKKAYSFCGTVEYMAPEVVNRQGHSHSADWWSYGVLMFEMLTGSLPFQGKDRKETMTLILKAKLGMPQFLSTEAQSLLRALFKRNPANRLGSGPDGAEEIKRHVFYSTIDWNKLYRREIKPPFKPAVAQPDDTFYFDTEFTSRTPKDSPGIPPSAGAHQLFRGFSFVATGLMEDDGKPRAPQAPLHSVVQQLHGKNLVFSDGYVVKETIGVGSYSECKRCVHKATNMEYAVKVIDKSKRDPSEEIEILLRYGQHPNIITLKDVYDDGKHVYLVTELMRGGELLDKILRQKFFSEREASFVLHTIGKTVEYLHSQGVVHRDLKPSNILYVDESGNPECLRICDFGFAKQLRAENGLLMTPCYTANFVAPEVLKRQGYDEGCDIWSLGILLYTMLAGYTPFANGPSDTPEEILTRIGSGKFTLSGGNWNTVSETAKDLVSKMLHVDPHQRLTAKQVLQHPWVTQKDKLPQSQLSHQDLQLVKGAMAATYSALNSSKPTPQLKPIESSILAQRRVRKLPSTTL
in vitro peptide phosphorylation by recombinant kinase (KAYAK, LC-MS) [1]: recombinant RSK1 could robustly phosphorylate peptides B6, C6, C11 and G5 in vitro
in vitro peptide phosphorylation by recombinant kinase (KAYAK, LC-MS) [2]: recombinant RSK1 could robustly phosphorylate peptides B6, C6, C11 and G5 in vitro
in vitro peptide phosphorylation by recombinant kinase (KAYAK, LC-MS) [3]: recombinant RSK1 could robustly phosphorylate peptides B6, C6, C11 and G5 in vitro
phosphorylation by purified kinase (KAYAK profiling of 90 peptides) [4]: is preferably phosphorylated by purified RSK1 enzyme
peptide phosphorylation, 100 µM peptide reacted individually [5]: both RSK and Akt demonstrated strong phosphorylation
in vitro peptide phosphorylation by recombinant kinase (KAYAK, LC-MS) [6]: recombinant RSK1 could robustly phosphorylate peptides B6, C6, C11 and G5 in vitro
